# Laboratory results as given in patent US10450355B2, “Lectins and uses thereof” (THE REGENTS OF THE UNIVERSITY OF MICHIGAN, priority 2014, dated 2019).
# Where a chain is given by its changes, count along the chain named. Numbers in names are those of the source.
# T1: BanLec, recombinant wild type (rBanLec, codon-optimized cDNA from gi71042661, C-terminal 6×His tag) (Musa acuminata, UniProt O22321)
# T1 sequence (O22321 1-141): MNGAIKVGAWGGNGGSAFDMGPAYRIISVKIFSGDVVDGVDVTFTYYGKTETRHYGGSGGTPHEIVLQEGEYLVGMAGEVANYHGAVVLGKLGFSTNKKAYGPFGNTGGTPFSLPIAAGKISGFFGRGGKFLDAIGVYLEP
# T2: BanLec, natural (banana-derived) (Musa acuminata, UniProt O22321)
# T2 sequence (O22321 1-141): T1 sequence (O22321 1-141)
# B1: D133G: BanLec mutant with a mutation in the first or second Greek Key sugar binding motif (protein)
# chain: T1 sequence (O22321 1-141) with D133G
# B2: H84K: BanLec mutant, H84 replaced by lysine (protein)
# chain: T1 sequence (O22321 1-141) with H84K
# B3: H84Q: BanLec mutant, H84 replaced by glutamine (protein)
# chain: T1 sequence (O22321 1-141) with H84Q
# B4: H84D: BanLec mutant, H84 replaced by aspartic acid (protein)
# chain: T1 sequence (O22321 1-141) with H84D
# B5: H84F: BanLec mutant, H84 replaced by phenylalanine (protein)
# chain: T1 sequence (O22321 1-141) with H84F
# B6: H84T: BanLec variant in which the histidine at position 84 is replaced by a threonine (protein)
# chain: T1 sequence (O22321 1-141) with H84T
# B7: H84L: BanLec mutant, H84 replaced by leucine (protein)
# chain: T1 sequence (O22321 1-141) with H84L
# B8: H84G: BanLec mutant, H84 replaced by glycine (protein)
# chain: T1 sequence (O22321 1-141) with H84G
# B9: H84W: BanLec mutant, H84 replaced by tryptophan (protein)
# chain: T1 sequence (O22321 1-141) with H84W
# B10: H84E: BanLec mutant, H84 replaced by glutamic acid (protein)
# chain: T1 sequence (O22321 1-141) with H84E
# B11: H84Y: BanLec mutant, H84 replaced by tyrosine (protein)
# chain: T1 sequence (O22321 1-141) with H84Y
# What was measured:
# [1] = target: T1, BanLec, recombinant wild type (rBanLec, codon-optimized cDNA from gi71042661, C-terminal 6×His tag); assay: Isothermal titration calorimetry, binding constants of lectin for sugar; design: species or system banana; settings: WT BanLec, ITC, 25° C., PBS, stoichiometry fixed at 1
# [2] = target: BanLec variant H84T (recombinant, 6×His tag) (Musa acuminata, UniProt O22321, H84T); assay: biochemical; type: binding, banana
# [3] = target: BanLec variant H84T (recombinant, 6×His tag); assay: biochemical; type: binding, banana; settings: for Fold Change (Ka, WT vs H84T): WT compared with H84T
# [4] = tested on: the lectins (BanLec WT and H84T mutant); assay: Isothermal titration calorimetry, general statement for the lectins; design: species or system banana; settings: ITC, 25° C., PBS; relatively low binding constants
# Experimental: Isothermal Titration Calorimetry
# Binding constants of the lectins for methyl-α-D-mannopyranoside were determined by isothermal titration calorimetry using a MicroCal VP-ITC calorimeter (Micro-Cal, Northampton, Mass., USA) at 25° C. Data were analyzed using Origins Ver. 7 software supplied with the instrument. The lectin in PBS, generally at approx. 0.2 mM, was titrated with the ligand at 20 mM in the same buffer. The titration volumes were adjusted so that the titration proceeded to at least a 10-fold molar excess of ligand over lectin monomers. The relatively low binding constants (Ka<1000 M^−1) precluded obtaining full saturation or a definite sigmoidal titration curve from which a definitive stoichiometry can be calculated; thus, the stoichiometry was fixed at 1 for curve-fitting to determine Ka; values between about 0.5 and 2-3 had little effect on the Ka-value obtained.
# [5] = target: T2, BanLec, natural (banana-derived); assay: Isothermal titration calorimetry, natural BanLec compared with rBanLec; type: binding; settings: ITC
# [6] = tested on: peripheral blood lymphocytes (PBL); assay: Mitogenic activity by BrdU incorporation; type: cell-based; settings: for stimulation index (mitogenic activity): PBL, three days with lectin, BrdU, less than ten considered non-mitogenic; for mitogenicity, in words: relative to WT BanLec
# HIV-1 pseudo-typed virus = type: cell-based; settings: for anti-HIV activity, in words: relative to WT BanLec
# [7] = Aggregation in solution during NMR studies; type: physicochemical; settings: NMR samples
# HIV-1 JR-CSF = type: in vivo, BLT humanized mice; settings: 75 μg vaginally ten minutes before vaginal HIV-1 JR-CSF challenge; six weeks; p=0.0359 vs PBS
# [8] = tested on: H5N1 avian influenza strain; type: cell-based, influenza A virus
# [9] = tested on: formaldehyde-treated rabbit erythrocytes; assay: Haemagglutination assay; type: cell-based; settings: rabbit red blood cells
# [10] = tested on: 1918 H1N1 pandemic influenza strain; type: cell-based, influenza A virus
# [11] = tested on: PBMCs from healthy donors; assay: Bio-Plex cytokine assay; type: cell-based, human; settings: PBMC from multiple donors, 72 h
# [12] = tested on: CD4+ peripheral blood mononuclear cells (PBMC); assay: Flow cytometry of activation marker CD69; type: cell-based
molecule,measurement,setting,value
"CO[C@H]1O[C@H](CO)[C@@H](O)[C@H](O)[C@@H]1O [methyl-α-mannoside, Methyl α-d-mannopyranoside]",Kd,[1]; read-out: Ka (converted),2.61 µM
same,Kd,[2],2.83 µM
same,"KD-values, rBanLec vs H84T",[3],similar
same,"Fold Change (Ka, WT vs H84T)",[3],1.09
same,Ka,[4],< 1000 M⁻¹
same,"affinity for the ligand, BanLec vs rBanLec",[5],no difference
OC[C@H]1O[C@@H](O[C@H]2[C@H](O)[C@H](O)C(O)O[C@@H]2CO)[C@@H](O)[C@@H](O)[C@@H]1O (some centres unmarked) [mannobiose],Ka,[1],300 mM⁻¹
same,Ka,"[2]; H84T BanLec, ITC, 25° C., PBS, stoichiometry fixed at 1",227 mM⁻¹
same,"KD-values, rBanLec vs H84T",[3],similar
same,"Fold Change (Ka, WT vs H84T)",[3],1.32
"GNA: Galanthus nivalis agglutinin, non-mitogenic negative control [reference compound]",stimulation index (mitogenic activity),[6],less than ten
Griffithsin [reference compound],stimulation index (mitogenic activity),[6],less than ten
B1,"mitogenicity, in words",[6],abolished the mitogenic activity
B2,"mitogenicity, in words",[6],marked loss
same,"anti-HIV activity, in words",HIV-1 pseudo-typed virus,marked loss
B3,"mitogenicity, in words",[6],marked loss
same,"anti-HIV activity, in words",HIV-1 pseudo-typed virus,marked loss
B4,"mitogenicity, in words",[6],marked loss
same,"anti-HIV activity, in words",HIV-1 pseudo-typed virus,marked loss
B5,"mitogenicity, in words",[6],minimal effects
same,"anti-HIV activity, in words",HIV-1 pseudo-typed virus,minimal effects
B6,aggregation over time in solution,[7],tendency to aggregate over time
same,stimulation of proliferation of lymphocytes,[6]; concentrations up to 1 μM,did not stimulate the proliferation of lymphocytes
same,"inhibition of HIV replication (IC50), in words",HIV-1 pseudo-typed virus,low nanomolar range
same,anti-HIV inhibition relative to WT BanLec,HIV-1 pseudo-typed virus; multiple different isolates of HIV,equal to or within one log
same,mice with detectable levels of viral RNA in the plasma,HIV-1 JR-CSF,none of the mice
same,inhibition of replication of H5N1 avian influenza virus,[8],very active and equally inhibited replication
same,minimal agglutination concentration,[9],487 µg/mL
same,inhibition of replication of 1918 H1N1 virus,[10],very active and equally inhibited replication
same,cytokine/chemokine production,[11],markedly reduced production of cytokines
same,cell surface expression of activation marker CD69,[12],very little upregulation
B7,"mitogenicity, in words",[6],marked loss
same,"anti-HIV activity, in words",HIV-1 pseudo-typed virus,marked loss
B8,"mitogenicity, in words",[6],reasonably similar drop in mitogenicity as H84T
same,"anti-HIV activity, in words",HIV-1 pseudo-typed virus,preserving some antiviral HIV activity
B9,"mitogenicity, in words",[6],minimal effects
same,"anti-HIV activity, in words",HIV-1 pseudo-typed virus,minimal effects
B10,"mitogenicity, in words",[6],marked loss
same,"anti-HIV activity, in words",HIV-1 pseudo-typed virus,marked loss
B11,"mitogenicity, in words",[6],minimal effects
same,"anti-HIV activity, in words",HIV-1 pseudo-typed virus,minimal effects
